Measured values from patent US8334254.
pKd: −log10 of the molar value.

Legend:
[1] = molecular target: enterocytic lactoferrin receptor on HT-29-18C1 enterocytic cells (human); assay: 125I-labelled ligand on HT29 cells with 100 molar excess of non-labelled native Lf
[2] = molecular target: lymphocytic lactoferrin receptor on Jurkat T lymphoblastic cells; assay: 125I-labelled ligand on Jurkat cells with 100 molar excess of non-labelled native Lf
[3] = molecular target: lymphocytic lactoferrin receptor on Jurkat T lymphoblastic cells; assay: 125I-labelled ligand binding to Jurkat cells at 4° C., Scatchard analysis
[4] = molecular target: enterocytic lactoferrin receptor on HT-29-18C1 enterocytic cells (human); assay: 125I-labelled ligand binding to HT-29-18C1 cells on ice, Scatchard analysis

non-specific binding as share of total binding [1] [%]	non-specific binding as share of total binding [2] [%]	pKd [3]	pKd [4]	sites per cell (sites per cell) [4]	Substance
25	25	7.05	6.00	4e+06	human lactoferrin isolated from human milk (from UniProt P02788 20-710) (ligand)
25	25	7.10	6.10	1.8e+06	recombinant human lactoferrin rhLf2 from pBIOC21-PSSp-Lf, purified from tobacco leaves (transformant T30) (from UniProt P02788 20-710) (ligand)
